Experimental data as given in US20180256699A1 (University of Texas, published 2018).
Where a chain is given by its changes, count along the chain named. Read-outs that look alike come from different tables or passages of the source.

Legend:
[1] = molecular target: T1, Bordetella adenylate cyclase toxin (ACT), full-length, acylated (Bordetella pertussis, UniProt J7QLC0 1-1706); experiment: cell-based or functional assay
[2] = molecular target: T2, HP1096*, hydrophobic domain of ACT, residues 399-1096, MBP fusion, acylated (Bordetella pertussis, UniProt J7QLC0 399-1096); experiment: ELISA: HP1096* coated equimolar with ACT, M1H5 IgG titrated from 1 nM, detected with anti-human Fc-HRP
[3] = molecular target: T3, CAT400, catalytic domain of ACT, residues 1-400 (Bordetella pertussis, UniProt J7QLC0 1-400); experiment: ELISA: CAT400 coated equimolar with ACT, M1H5 IgG titrated from 1 nM, detected with anti-human Fc-HRP
[4] = molecular target: T4, RTX985, RTX domain of ACT, residues 985-1706 (Bordetella pertussis, UniProt J7QLC0 985-1706); experiment: ELISA, murine αMβ2 integrin coated, domain serially diluted
Method: (§1) To assess non-specific binding, control wells were not coated with αMβ₂ receptor but blocked with M-PBST only.
(§2) Recombinant murine αMβ₂ integrin (R&D Systems) was coated at 1 μg/mL in PBS at 4° C. overnight, and blocked with M-PBST.

[5] = molecular target: T3, CAT400, catalytic domain of ACT, …; experiment: as above
Method: as §1, §2

[6] = molecular target: HP1096, hydrophobic domain of ACT, residues 399-1096, MBP fusion, non-acylated (Bordetella pertussis, UniProt J7QLC0 399-1096); experiment: as above
Method: as §1, §2

[7] = molecular target: T2, HP1096*, hydrophobic domain of ACT, …; experiment: as above
Method: as §1, §2

[8] = molecular target: T5, RTX751, RTX domain of ACT, residues 751-1706, non-acylated (Bordetella pertussis, UniProt J7QLC0 751-1706); experiment: method and antibody format not stated
T5 construct: Expressed without CyaC

[9] = molecular target: T1, Bordetella adenylate cyclase toxin …; experiment: ELISA: ACT coated, M2B10 IgG titrated from 1 nM, detected with anti-human Fc-HRP
[10] = molecular target: T3, CAT400, catalytic domain of ACT, …; experiment: ELISA: CAT400 coated equimolar with ACT, M2B10 IgG titrated from 1 nM, detected with anti-human Fc-HRP
[11] = molecular target: T6, Bpp-RTX751 (Bordetella parapertussis); experiment: ELISA: Bpp-RTX751 coated, M2B10 IgG titrated
T6 construct: fragment

[12] = molecular target: T2, HP1096*, hydrophobic domain of ACT, …; experiment: ELISA: HP1096* coated equimolar with ACT, M2B10 IgG titrated from 1 nM, detected with anti-human Fc-HRP
[13] = molecular target: T7, Br-RTX751 (Bordetella bronchiseptica); experiment: ELISA: Br-RTX751 coated, M2B10 IgG titrated
T7 construct: fragment

[14] = molecular target: T5, RTX751, RTX domain of ACT, residues …; experiment: ELISA: Bp-RTX751 coated, M2B10 IgG titrated
[15] = molecular target: T4, RTX985, RTX domain of ACT, residues …
[16] = molecular target: T5, RTX751, RTX domain of ACT, residues …

B1: M1F10 single-chain antibody fragment (scAb) (scFv, not shown: a dimerising Fc or GST)
scFv: DIVMTQSPASLAVSLGQRATISCRASESVGNYGISFTNWYQQKPGQPPKLLIYAASNLESGIPARFSGSGSGTDFTLNIHPVEEEDAATYYCQQSNEDPYTFGGGTKLEIKRGGGGGGSGGGGSGGGGSGGGGSEVKLVESGGDLVKPGGSLKLSCAASGFTFSSYGMSWVRQTPDKRLEWVATISSGGTYTYYPDSVKGRFTISRDNAKNTLYLQMSSLKSEDTAMYYCAREIMRGGGYYFDYWGQGTTLTVSS
[1]
  reduction of intracellular cAMP level in J774A.1 cells, scAb at 160-fold molar excess over ACT: > 90%

B2: M1H5 chimeric IgG1/κ antibody (antibody, V domains shown)
VH: EVNLVESGGDLVKPGGSLKLSCAASGFTFSSYGMSWVRQTPDKRLEWVATISSGGTYTYYPDSVKGRFTISRDNAKNTLYLQMSSLKSEDTAMYYCAREIMRGGGYYFDYWSQGTTLTVSS
VL: DIQMIQSTSSLSASLGDRVTISCRASQDISNYLNWYQQKPDGTVKLLIYYTSRLHSGVPSRFSGSGSGTDYSLTISNLEQEDIATYFCQQGNTLPYTFGGGTKLEIKR
notes: also called M1H5 IgG; not shown: human IgG1 constant domains (IgG-Abvec vector); human kappa constant domain (Igκ-Abvec vector)
[2]
  binding result: no binding (tested: 1 nM)
[3]
  binding result: no binding (tested: 1 nM)

B3: M1E2 single-chain antibody fragment (scAb) (scFv, not shown: a dimerising Fc or GST)
scFv: DIVMTQSPAIMSASLGERVTMTCTASSSVSSSYLHWYQQKPGSSPKLWIYSTSNLASGVPARFSGSGSGTSYSLTISSMEAEDAATYYCHQYHRSPPTFGGGTKLEIKRGGGGGGSGGGGSGGGGSGGGGSQVQLKQSGAELVRPGTSVKVSCKASGYAFTNYLIEWVKQRPGQGLEWIGVINPGIGNTNYNEKFKGKATLTADKSSSTVYMQLSSLTSDDSAVYFCARGLNYGSSQHWYFDVWGAGTTVTVSS
[1]
  reduction of intracellular cAMP level in J774A.1 cells, scAb at 160-fold molar excess over ACT: > 90%

B4: M1H1 single-chain antibody fragment (scAb) (scFv, not shown: a dimerising Fc or GST)
scFv: B3 scFv with I107L, K136Q, S206F, V210A, Y211S, T249S
[1]
  reduction of intracellular cAMP level in J774A.1 cells, scAb at 160-fold molar excess over ACT: > 90%

B5: M2B10 single-chain antibody fragment (scAb) (scFv)
scFv: B3 scFv with M11L, G101A, Q132E, K136Q, T249S
[1]
  reduction of intracellular cAMP level in J774A.1 cells, scAb at 160-fold molar excess over ACT: > 90%

B6: M2C2 single-chain antibody fragment (scAb) (scFv, not shown: a dimerising Fc or GST)
scFv: DIVLTQSPAIMSASLGERVTMTCTASSSVSSSYLHWYQQKPGSSPKLWIYSTSNLASGVPARFSGSGSGTSYSLTISSMEAEDAATYYCHQYHRSPPTFGGGTKLEIKRGGGGGGSGGGGSGGGGSGGGGSQVQLQQSGPELGKPGASVKISCKASGYLFTGYNIYWVKQSHRKSLEWIGYINPYNGDTSYNQKSKGKATLTVDRSSSTAYMHLNSLTSEDSAIYFCARGYYVRPLDYWGQGTTLTVSS
[1]
  reduction of intracellular cAMP level in J774A.1 cells, scAb at 160-fold molar excess over ACT: > 90%

B7: Recombinant soluble murine αMβ2 integrin (R&D Systems) (receptor)
chain 1: FNLDTEHPMTFQENAKGFGQNVVQLGGTSVVVAAPQEAKAVNQTGALYQCDYSTSRCHPIPLQVPPEAVNMSLGLSLAVSTVPQQLLACGPTVHQNCKENTYVNGLCYLFGSNLLRPPQQFPEALRECPQQESDIVFLIDGSGSINNIDFQKMKEFVSTVMEQFKKSKTLFSLMQYSDEFRIHFTFNDFKRNPSPRSHVSPIKQLNGRTKTASGIRKVVRELFHKTNGARENAAKILVVITDGEKFGDPLDYKDVIPEADRAGVIRYVIGVGNAFNKPQSRRELDTIASKPAGEHVFQVDNFEALNTIQNQLQEKIFAIEGTQTGSTSSFEHEMSQEGFSASITSNGPLLGSVGSFDWAGGAFLYTSKDKVTFINTTRVDSDMNDAYLGYASAVILRNRVQSLVLGAPRYQHIGLVVMFRENFGTWEPHTSIKGSQIGSYFGASLCSVDMDADGNTNLILIGAPHYYEKTRGGQVSVCPLPRGRARWQCEALLHGDQGHPWGRFGAALTVLGDVNGDKLTDVAIGAPGEQENQGAVYIFYGASIASLSASHSHRIIGAHFSPGLQYFGQSLSGGKDLTMDGLMDLAVGAQGHLLLLRAQPVLRLEATMEFSPKKVARSVFACQEQVLKNKDAGEVRVCLRVRKNTKDRLREGDIQSTVTYDLALDPVRSRIRAFFDETKNNTRRRTQVFGLMQKCETLKLILPDCVDDSVSPIILRLNYTLVGEPLRSFGNLRPVLAMDAQRFFTAMFPFEKNCGNDSICQDDLSITMSAMGLDTLVVGGPQDFNMSVTLRNDGEDSYGTQVTVYYPSGLSYRKDSASQNPLTKKPWFVKPAESSSSSEGHGALKSTTWNINHPIFPANSEVTFNVTFDVDSHASFGNKLLLKAIVASENNMSRTHKTKFQLELPVKYAIYMIVTSDESSIRYLNFTASEMTSKVIQHQYQFNNLGQRSLPVSVVFWIPVQINNVTVWDHPQVIFSQNLSSACHTEQKSPPHSNFRDQLERTPVLNCSVAVCKRIQCDLPSFNTQEIFNVTLKGNLSFDWYIKTSHGHLLLVSSTEILFNDSAFALLPGQESYVRSKTETKVEPYEVHN
chain 2: QECTKYKVSSCRDCIQSGPGCSWCQKLNFTGPGEPDSLRCDTRAQLLLKGCPADDIMDPRSIANPEFDQRGQRKQLSPQKVTLYLRPGQAAAFNVTFRRAKGYPIDLYYLMDLSYSMLDDLNNVKKLGGDLLQALNEITESGRIGFGSFVDKTVLPFVNTHPEKLRNPCPNKEKACQPPFAFRHVLKLTDNSNQFQTEVGKQLISGNLDAPEGGLDAIMQVAACPEEIGWRNVTRLLVFATDDGFHFAGDGKLGAILTPNDGRCHLEDNMYKRSNEFDYPSVGQLAHKLSESNIQPIFAVTKKMVKTYEKLTEIIPKSAVGELSDDSSNVVQLIKNAYYKLSSRVFLDHSTLPDTLKVTYDSFCSNGASSIGKSRGDCDGVQINNPVTFQVKVMASECIQEQSFVIRALGFTDTVTVQVRPQCECQCRDQSREQSLCGGKGVMECGICRCESGYIGKNCECQTQGRSSQELERNCRKDNSSIVCSGLGDCICGQCVCHTSDVPNKEIFGQYCECDNVNCERYNSQVCGGSDRGSCNCGKCSCKPGYEGSACQCQRSTTGCLNARLVECSGRGHCQCNRCICDEGYQPPMCEDCPSCGSHCRDNHTSCAECLKFDKGPFEKNCSVQCAGMTLQTIPLKKKPCKERDSEGCWITYTLQQKDGRNIYNIHVEDSLECVKGPN
notes: extracellular domain; also called αMβ2 receptor; soluble αMβ2 integrin
[4]
  binding result: no binding
[5]
  binding result: no binding
[6]
  binding result: no binding
[7]
  binding result: no binding

B8: M2B10 antibody (format not stated) (antibody, V domains shown)
VH: EVQLQQSGAELVRPGTSVKVSCKASGYAFTNYLIEWVKQRPGQGLEWIGVINPGIGNTNYNEKFKGKATLTADKSSSTVYMQLSSLTSDDSAVYFCARGLNYGSSQHWYFDVWGAGTSVTVSS
VL: DIVMTQSPAILSASLGERVTMTCTASSSVSSSYLHWYQQKPGSSPKLWIYSTSNLASGVPARFSGSGSGTSYSLTISSMEAEDAATYYCHQYHRSPPTFGAGTKLEIKR
[8]
  Kd: ~1.2 nM
[1]
  IC50, J774A.1 macrophage cell line intoxication assay with 125 ng/mL ACT (0.7 nM): 6 nM

B9: M2B10 chimeric IgG1/κ antibody (antibody, V domains shown)
VH: B8 VH
VL: B8 VL
notes: also called M2B10 IgG; not shown: human IgG1 constant domains (IgG-Abvec vector); human kappa constant domain (Igκ-Abvec vector)
[9]
  EC50 (read off the curve): ~0.04 nM
[10]
  binding result: no binding (tested: 1 nM)
[11]
  EC50 (read off the curve): ~0.05 nM
[12]
  binding result: no binding (tested: 1 nM)
[13]
  EC50 (read off the curve): ~0.05 nM
[14]
  EC50 (read off the curve): ~0.05 nM
[15]
  EC50 (read off the curve): ~0.04 nM
[16]
  EC50 (read off the curve): ~0.04 nM

B10: M2C2 antibody (format not stated) (antibody, V domains shown)
VH: QVQLQQSGPELGKPGASVKISCKASGYLFTGYNIYWVKQSHRKSLEWIGYINPYNGDTSYNQKSKGKATLTVDRSSSTAYMHLNSLTSEDSAIYFCARGYYVRPLDYWGQGTTLTVSS
VL: B8 VL with M4L, L11M, A101G
[8]
  Kd: ~1.5 nM
[1]
  IC50, J774A.1 macrophage cell line intoxication assay with 125 ng/mL ACT (0.7 nM): 8.1 nM
